Test [1] deals with T1, crab-eating macaque CLDN-5 protein (crab-eating macaque, UniProt O00501 1-218 (human entry)).
T1 construct: Expressed on cells by retrovirus; also called cCLDN-5; MDCKII/cCLDN-5
T1 chain: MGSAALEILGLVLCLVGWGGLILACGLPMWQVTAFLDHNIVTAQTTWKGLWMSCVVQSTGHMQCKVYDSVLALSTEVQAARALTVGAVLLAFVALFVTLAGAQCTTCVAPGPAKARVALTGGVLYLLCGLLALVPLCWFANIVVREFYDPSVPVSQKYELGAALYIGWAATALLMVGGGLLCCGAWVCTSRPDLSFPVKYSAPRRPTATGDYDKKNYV
Description: FACS on CLDN-5-expressing cells, antibody 5 µg/mL. Here is the method:
(§1) The obtained CLDN-expressing cells were seeded in a 10 cm dish, and on the next day, the cells were collected. The primary antibodies (100 μL) were added to the obtained 1.0×10⁵ cells and allowed to react for 1 hour at 4° C. At this time, a mixed solution of a C-CPE mutant (C-CPEmt) and a mouse anti-His tag antibody (Abeam) used in Non-Patent Literature 3 was used as positive control. The cells were washed three times with 0.2% BSA-PBS, then mixed with 100 μL of a secondary antibody solution (FITC conjugated goat anti-mouse IgG or anti-rat IgG (Jackson Immune Research, 115-095-003 or 112-095-003) 400x diluted with 1% BSA-PBS, and allowed to react for 1 hour at 4° C. The cells were washed with 0.2% BSA-TBS and then analyzed using FACS caliber (BD Bioscience).
In the same manner as in Example 1-2), a DNA fragment consisting of a cCLDN-5 protein (SEQ ID NO: 28)-encoding sequence or an mCLDN-5 protein (SEQ ID NO: 29)-encoding sequence was inserted into a pCX4pur vector, thereby obtaining vectors for preparing a retrovirus. By using these vectors with the vector for preparing a retrovirus prepared in Example 1-2), various animal species CLDN-5 protein-expressing cells were prepared. By using these cells and the antibodies (antibody concentration: 5 μg/mL, as primary antibody), FACS assay was performed in the same manner as in 3-1).

Another test has as its target T2, mCLDN-1 protein (mouse, UniProt O88551 1-211).
T2 construct: Expressed on cells by retrovirus; also called mouse Claudin-1 protein
T2 sequence: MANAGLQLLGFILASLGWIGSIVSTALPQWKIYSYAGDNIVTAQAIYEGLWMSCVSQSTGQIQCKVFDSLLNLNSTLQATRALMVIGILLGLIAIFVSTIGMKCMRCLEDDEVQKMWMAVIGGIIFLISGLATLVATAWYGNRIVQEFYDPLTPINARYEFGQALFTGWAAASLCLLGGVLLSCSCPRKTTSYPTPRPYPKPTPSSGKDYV
Description: FACS, hybridoma supernatant on CLDN-expressing cells.
From the text: (§2) By the insertion of a DNA fragment consisting of an hCLDN-1 protein (SEQ ID NO: 30)-encoding sequence, an hCLDN-2 protein (SEQ ID NO: 31)-encoding sequence, an hCLDN-3 protein (SEQ ID NO 32)-encoding sequence, an hCLDN-4 protein (SEQ ID NO: 33)-encoding sequence, an hCLDN-6 protein (SEQ ID NO: 34)-encoding sequence, an hCLDN-7 protein (SEQ ID NO: 35)-encoding sequence, an mCLDN-1 protein (SEQ ID NO: 37)-encoding sequence, an mCLDN-2 protein (SEQ ID NO: 38)-encoding sequence, an mCLDN-3 protein (SEQ ID NO: 39)—encoding sequence, or an mCLDN-5 protein (SEQ ID NO: 29)-encoding sequence, vectors for preparing a retrovirus were obtained. By using these vectors and the vector for preparing a retrovirus prepared in Example 1-2), various CLDN protein-expressing cells were prepared. By using these cells and a culture supernatant of hybridomas producing antibodies as primary antibodies, FACS assay was performed by the following method.
as §1

The next test concerns the target T3, mCLDN-3 protein (mouse, UniProt Q9Z0G9 1-219).
T3 construct: Expressed on cells by retrovirus; also called mouse Claudin-3 protein
T3 sequence: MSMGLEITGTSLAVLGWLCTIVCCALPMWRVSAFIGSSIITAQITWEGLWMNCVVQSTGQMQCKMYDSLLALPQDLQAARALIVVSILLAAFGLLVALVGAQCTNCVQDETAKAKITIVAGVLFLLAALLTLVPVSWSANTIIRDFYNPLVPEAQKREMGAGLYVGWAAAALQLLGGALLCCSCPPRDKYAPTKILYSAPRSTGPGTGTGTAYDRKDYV
The description is as above.
From the text: as §2, §1

A further test addresses T4, mouse CLDN-5 protein (mouse, UniProt O54942 1-218).
T4 construct: Expressed on cells by retrovirus; also called mCLDN-5; MDCKII/mCLDN-5
T4 sequence: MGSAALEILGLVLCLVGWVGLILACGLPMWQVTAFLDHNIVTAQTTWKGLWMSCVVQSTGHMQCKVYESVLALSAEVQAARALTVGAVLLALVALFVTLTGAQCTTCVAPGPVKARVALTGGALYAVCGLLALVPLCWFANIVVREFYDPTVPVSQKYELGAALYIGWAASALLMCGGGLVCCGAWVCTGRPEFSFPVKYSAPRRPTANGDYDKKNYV
The test is described as above.
From the text: as §2, §1

For test [2], the target named is T5, wild-type human CLDN-5 protein (human, UniProt O00501 1-218).
T5 construct: Four-transmembrane tight junction protein expressed by retrovirus on HT-1080 (or MDCKII) cells; also called hCLDN-5; human Claudin-5 protein
T5 sequence: T1 chain with G86S, L127F, G179C, S190G
Described as above.
From the text: as §2, §1

A further test concerns the target T6, mCLDN-2 protein (mouse, UniProt O88552 1-230).
T6 construct: Expressed on cells by retrovirus; also called mouse Claudin-2 protein
T6 sequence: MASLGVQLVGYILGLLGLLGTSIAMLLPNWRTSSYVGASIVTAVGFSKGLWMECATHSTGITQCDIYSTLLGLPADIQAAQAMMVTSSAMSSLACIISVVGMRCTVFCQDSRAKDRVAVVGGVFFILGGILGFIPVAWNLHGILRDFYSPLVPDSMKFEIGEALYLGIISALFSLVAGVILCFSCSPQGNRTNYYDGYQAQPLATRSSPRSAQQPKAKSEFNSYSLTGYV
Described as above.
From the text: as §2, §1

Test [3] has as its target T5, wild-type human CLDN-5 protein. Briefly: FACS saturation binding on HT-1080/hCLDN-5, one-site fit; Lot 2. As for the experimental part: as §1
(§3) By using HT-1080/hCLDN-5 and 100 μL of the anti-CLDN-5 antibody at each concentration diluted with 1.0% BSA-PBS, FACS assay was performed in the same manner as in Example 3-1). […] At this time, the equation of saturation binding-one site-specific binding of Graph Pad prism 7 (Graph Pad Software) was used.

Test [4] shares this target. Briefly: FACS saturation binding on HT-1080/hCLDN-5, one-site fit; Lot 1. Here is the method: as §1, §3

Positions count from the first letter of the chain named.

B1: mouse anti-CLDN-5 antibody M29 (antibody, mouse IgG3, V domains shown)
VH: EVQLVESGGGLVQPKGSLKLSCAASGFTFNIYAMHWVRQAPGKGLEWVARIRSKSSNYATYYVDSVKDRFIISRDDSQSMLYLQVNNLKTEDTAMYYCVREGNWDCFDYWGQGTTLTVSS
VL: DIVMSQSPSSLPVSVGQKVTMTCKSSQSLLYTSNQKNYLAWYQQKPGQSPKLLIYWASTRESGVPDRFTGSGSGTDFTLTISSVKAEDLAIYYCQQYYRYHTFGGGTRLEIK
notes: Hybridoma monoclonal; also called antibody D
Regarding B1, the binding result in test [1] is “binds”; with mCLDN-1 protein it was “no binding”; in the test with mCLDN-3 protein, “no binding”; with mouse CLDN-5 protein it was “no binding”; in test [2] it was “binds”; with mCLDN-2 protein, “no binding”.

B2: rat anti-CLDN-5 antibody R11 (antibody, rat IgG2b, V domains shown)
VH: EVQLVESGGGLVQPGRSRKLSCAASGFTFNNYGMAWVRQAPTKGLEWVASITNSGYTTYYRDSVKGRFTISRDNAKNALYLQMDSLRSEDTATYYCTTGGYGGYFPLFDYWGHGVMVTVSS
VL: DVVMTQTPVSLSVSLGGQTSISCRSSQSLFHSDGNTYLYWYLRKPGQSPQLLIYKVSNRFSGVPDRFSGSGSGTDFTLKISRVEPEDLGLYYCYQGTHYPPTFGSGTKLEI
notes: Hybridoma monoclonal; also called antibody J
As for B2, the binding result in test [1] is listed as “binds”; with mCLDN-1 protein, “no binding”; with mCLDN-3 protein, “no binding”; in the test with mouse CLDN-5 protein it was “no binding”; in test [2] it was “binds”; with mCLDN-2 protein, “no binding”.

B3: rat anti-CLDN-5 antibody R20 (antibody, rat IgG2a, V domains shown)
VH: EVQLVESGGGLVQPGRSMKLSCAVSGFTFSDYYMAWVRQAPKKGLEWVASISYEGRNTYYGDSVKGRFTISRDNAKNTLYLQMNSLRSEDTATYYCARHPRRYFDFWGPGTMVTVSS
VL: DIVMTQSPSSLAVSAGETVTINCKSSQSLLFSGDQENHLAWYQQKAGQSAKLLIYWASTRESGVPDRFIGSGSGADFTLTISSMQAEDRATYYCQQNYDIPYTFGAGTKLEL
notes: Hybridoma monoclonal; also called antibody L
With B3, the binding result in test [1] is “binds”; with mCLDN-1 protein it was “no binding”; with mCLDN-3 protein, “no binding”; in the test with mouse CLDN-5 protein it was “no binding”; in test [2] it was “binds”; in the test with mCLDN-2 protein, “no binding”.

B4: rat anti-CLDN-5 antibody R28 (antibody, rat IgG2a, V domains shown)
VH: EVQLVESGGGLVQPGRSLKLSCAASGFTFSDYFMAWVRQAPKKGLEWVASINYEGSRTYYGDSVKDRFTISRDNTKTTLYLQMTSLRSEDTATYYCARHPRRYFDFWGQGVMVTVSS
VL: DIVMTQSPSSLAVSAGETVTINCKSSRSLFSSGYQENYLAWYQQKPGQSPKMLIYLASTRESGVPDRFIGSGSGTDFTLTINTLQAEDLAIYYCQQHYDIPYTFGAGTKLEL
notes: Hybridoma monoclonal; also called antibody M
As to B4, the binding result in test [1] was “binds”; with mCLDN-1 protein, “no binding”; in the test with mCLDN-3 protein, “no binding”; in the test with mouse CLDN-5 protein, “no binding”; in test [2], “binds”; with mCLDN-2 protein, “no binding”.

B5: mouse anti-CLDN-5 antibody M23 (antibody, mouse IgG2b, V domains shown)
VH: EVQLQQSGPVLVKPGPSVMISCKASGFTFTDYYMHWVKQSHGKSLEWIGLVYPYNGGTDYNQKFKGKATLTVDTSSSTAYMELNSLTSEDSAVYYCARCLYDGLYFYAMDYWGQGTSVTVSS
VL: DIVMSQSPSSLAVSAGEKVTMTCKSSQSLLNSRARKNYLAWYQQKAGQSPKLLMYWASTRESGVPDRFTASGSGTDFTLTISSVQAEDLAVFYCKQSYNLPWTFGGGTKLEIKR
notes: Hybridoma monoclonal; also called antibody C
Broadly, the Kd is a measure of binding affinity in units of concentration. High values mean weaker binding, low ones tighter binding. On to B5, for which the Kd in test [3] is 2.78 nM; in test [4] it was 3.77 nM. Besides, the binding result in test [1] is listed as “binds”; with mCLDN-1 protein, “no binding”; in the test with mCLDN-3 protein it was “no binding”; with mouse CLDN-5 protein it was “no binding”; with mCLDN-2 protein, “no binding”.

B6: rat anti-CLDN-5 antibody R8 (antibody, rat IgG2b, V domains shown)
VH: VKVVESGGGLVQPGRSMKLSCAASGFTFSDYFMAWVRQSPKKGLEWVASINYGGSRTYYEDSVKGRFTISRDNAKSTLYLQMNSLRSEDTATYYCARHPHRLFDYWGQGVMVTVSS
VL: DIVMTQSPSFLAVSVGETVTINCKSSQSFLSSGNQENYLAWYQQKPGQSPKLLIHLASTRESGVPDRFIGSGSGTDFTLTISSMQAEDVAIYYCQQHYDIPYTFGAGTKLEL
notes: Hybridoma monoclonal; also called antibody H
As for B6, the binding result in test [1] is on record as “binds”; in the test with mCLDN-1 protein, “no binding”; in the test with mCLDN-3 protein, “no binding”; in the test with mouse CLDN-5 protein, “no binding”; in test [2], “binds”; in the test with mCLDN-2 protein it was “no binding”.

(Values after US20200148765A1 (OSAKA UNIVERSITY, published 2020).)
